# According to paper PMC6996395:
# “Also recorded” adds a separate entry of the source.
# Key:
# Assay in all cases: in situ proximity ligation assay
# Settings in all cases: reference: wild-type R-region
# [1] = target: CFTR (split-CFTR: front half, R-region and back half as separate polypeptides) back half, 837-1480 (UniProt P13569)
# [2] = target: CFTR (split-CFTR: front half, R-region and back half as separate polypeptides) front half, 1-634 (UniProt P13569)
# [3] = target: CFTR (split-CFTR: front half, R-region and back half as separate polypeptides) front half, 1-634 (UniProt P13569); remark: listed apart in the source
# CFTR (split-CFTR: front half, R-region and back half as separate polypeptides) R-region, 635-836 (from UniProt P13569) S686D, sequence (P13569 1-634, stated change not applied): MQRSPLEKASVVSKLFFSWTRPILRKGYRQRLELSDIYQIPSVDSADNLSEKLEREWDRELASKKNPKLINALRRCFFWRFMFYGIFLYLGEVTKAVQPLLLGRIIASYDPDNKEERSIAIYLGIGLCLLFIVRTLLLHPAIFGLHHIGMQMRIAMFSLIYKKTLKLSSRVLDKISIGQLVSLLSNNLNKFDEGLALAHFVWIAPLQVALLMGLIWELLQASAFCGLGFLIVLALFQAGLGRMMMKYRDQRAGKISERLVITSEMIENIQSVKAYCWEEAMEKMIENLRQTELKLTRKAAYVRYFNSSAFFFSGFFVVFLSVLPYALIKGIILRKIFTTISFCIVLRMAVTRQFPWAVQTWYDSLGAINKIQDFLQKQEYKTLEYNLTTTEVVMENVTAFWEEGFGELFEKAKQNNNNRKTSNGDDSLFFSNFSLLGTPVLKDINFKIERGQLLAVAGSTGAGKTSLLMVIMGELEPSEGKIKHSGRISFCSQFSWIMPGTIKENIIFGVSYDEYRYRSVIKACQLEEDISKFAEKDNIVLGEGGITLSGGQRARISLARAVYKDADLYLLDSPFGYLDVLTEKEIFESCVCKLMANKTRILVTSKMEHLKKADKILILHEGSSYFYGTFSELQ
Substance,"other: PLA CTCF ([1]; sites S641,T682)","other: PLA CTCF ([2]; sites S641,T682)","other: PLA CTCF ([3]; sites S641,T682)",other: PLA CTCF ([1]; sites S686),other: PLA CTCF ([2]; sites S686),other: PLA CTCF ([3]; sites S686)
"CFTR (split-CFTR: front half, R-region and back half as separate polypeptides) R-region, 635-836 (from UniProt P13569) S641A/T682A",stronger; reference 3.41 ± 0.20,weaker; reference 3.90 ± 0.18; also recorded: stronger; reference 7.91 ± 0.21,stronger; reference 3.29 ± 0.24,–,–,–
"CFTR (split-CFTR: front half, R-region and back half as separate polypeptides) R-region, 635-836 (from UniProt P13569) S686A",–,–,–,weaker; reference 3.41 ± 0.20,stronger; reference 3.90 ± 0.18; also recorded: same; reference 5.67 ± 0.55; also recorded: weaker; reference 7.91 ± 0.21,weaker; reference 3.29 ± 0.24
"CFTR (split-CFTR: front half, R-region and back half as separate polypeptides) R-region, 635-836 (from UniProt P13569) S686D",–,–,–,–,same; reference 5.67 ± 0.55; also recorded: weaker; reference 7.91 ± 0.21,stronger; reference 3.29 ± 0.24
